Biological target: MYC-tagged Exo70 wild-type (in MTLn3 cells) (UniProt Q9UPT5)
Assay: proximity ligation assay
Conditions: N = 3 experiments

Chain of UniProt Q9UPT5 (Q9UPT5 whole entry): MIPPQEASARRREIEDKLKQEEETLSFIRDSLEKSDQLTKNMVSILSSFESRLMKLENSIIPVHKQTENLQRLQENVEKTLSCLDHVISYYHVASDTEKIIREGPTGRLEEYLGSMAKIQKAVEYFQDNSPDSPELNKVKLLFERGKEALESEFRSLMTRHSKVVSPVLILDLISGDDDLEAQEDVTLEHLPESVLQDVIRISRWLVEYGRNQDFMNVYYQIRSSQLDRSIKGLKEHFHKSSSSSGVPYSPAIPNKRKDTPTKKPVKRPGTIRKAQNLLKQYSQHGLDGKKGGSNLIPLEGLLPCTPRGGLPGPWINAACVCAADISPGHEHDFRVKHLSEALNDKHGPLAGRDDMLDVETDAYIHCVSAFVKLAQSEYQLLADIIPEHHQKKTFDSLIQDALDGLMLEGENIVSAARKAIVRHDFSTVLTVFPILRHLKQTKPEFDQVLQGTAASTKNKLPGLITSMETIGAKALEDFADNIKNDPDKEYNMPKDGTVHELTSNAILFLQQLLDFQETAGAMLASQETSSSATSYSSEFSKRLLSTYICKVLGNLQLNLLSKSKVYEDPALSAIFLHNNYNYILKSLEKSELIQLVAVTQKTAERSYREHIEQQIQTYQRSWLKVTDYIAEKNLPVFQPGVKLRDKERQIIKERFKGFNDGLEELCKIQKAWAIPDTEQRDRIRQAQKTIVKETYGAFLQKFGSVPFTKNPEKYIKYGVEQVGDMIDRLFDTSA

## Flag-tagged TC10 wild-type (in MTLn3 cells) P43L; E45V; Y46H; T49A; Y54C
category: core, parent: est. 23, read off a plot
  other: % invadopodia with PLA spots at core (% invadopodia): 16
category: none, parent: est. 33, read off a plot
  other: % invadopodia with no PLA spots (none) (% invadopodia): 55
category: side, parent: est. 44, read off a plot
  other: % invadopodia with PLA spots at side (% invadopodia): 29

Reference: article PMC8445963
